We go through two molecules from article PMC2173853 (The Journal of Cell Biology, 2002).

B1: GST–Sed5p (entire cytosolic region) (domain or fragment)
chain: MNIKDRTSEFQQSVLSYKKRNKNFREQQRERLQEKESENFANNTTGNGKSVSEFQKKASGIAHEISSTAQLLSKLAVLAKRKPMFNDNPVEIAELSFLIKRKIYAIEQSLVQLSQLKKTDVNGNTSNQSSKQPSAVQHSKNVVNLLNTQMKNISGSFKDVLEERQRLEMANKDRWQKLTTDTGHAPADDQTQSNHAADLTTYNNSNPFMTSLLDESSEKNNNSSNQGELSFPQNDSQLMLMEEGQLSNNVYLQERNRAVETIESTIQEVGNLFQQLASMVQEQGEVIQRIDANVDDIDLNISGAQRELLKYFDRIKSNRWLAAK

Common to all, as to assay: pull-down
Assay [1] concerns the target T1, His10-Sly1p (NH2-terminally His10-tagged full-length Sly1p) (S. cerevisiae, UniProt P22213 1-666).
T1 sequence: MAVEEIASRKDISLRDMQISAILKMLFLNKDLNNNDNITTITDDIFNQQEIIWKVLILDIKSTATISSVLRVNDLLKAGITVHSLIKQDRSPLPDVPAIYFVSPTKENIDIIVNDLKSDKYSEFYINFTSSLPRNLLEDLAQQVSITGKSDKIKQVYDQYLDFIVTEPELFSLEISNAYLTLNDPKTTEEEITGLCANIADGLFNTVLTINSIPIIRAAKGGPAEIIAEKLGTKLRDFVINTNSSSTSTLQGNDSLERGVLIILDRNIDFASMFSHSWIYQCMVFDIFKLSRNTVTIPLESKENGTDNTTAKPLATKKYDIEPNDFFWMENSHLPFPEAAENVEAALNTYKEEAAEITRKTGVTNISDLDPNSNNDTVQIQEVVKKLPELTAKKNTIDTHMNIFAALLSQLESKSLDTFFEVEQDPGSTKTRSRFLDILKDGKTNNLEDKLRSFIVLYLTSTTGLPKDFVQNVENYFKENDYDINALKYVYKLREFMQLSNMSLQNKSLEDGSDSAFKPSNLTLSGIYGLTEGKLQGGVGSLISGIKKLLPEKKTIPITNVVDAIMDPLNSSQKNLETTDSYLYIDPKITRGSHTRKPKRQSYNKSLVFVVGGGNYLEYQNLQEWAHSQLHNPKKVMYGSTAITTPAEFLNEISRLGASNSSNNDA

Assay [2] addresses T2, GST–Ykt6p (amino acids 1–195) (S. cerevisiae, UniProt P36015 1-195).
T2 sequence: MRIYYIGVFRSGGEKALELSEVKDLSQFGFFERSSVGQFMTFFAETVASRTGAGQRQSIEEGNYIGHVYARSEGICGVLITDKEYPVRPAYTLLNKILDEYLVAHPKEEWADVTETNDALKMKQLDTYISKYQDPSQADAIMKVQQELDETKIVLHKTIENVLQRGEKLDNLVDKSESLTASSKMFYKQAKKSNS

The target in assay [3] is T3, heterodimeric GST–Sed5p–His10-Sly1p complex bound to beads (S. cerevisiae, UniProt Q01590;P22213).
T3 sequence 1: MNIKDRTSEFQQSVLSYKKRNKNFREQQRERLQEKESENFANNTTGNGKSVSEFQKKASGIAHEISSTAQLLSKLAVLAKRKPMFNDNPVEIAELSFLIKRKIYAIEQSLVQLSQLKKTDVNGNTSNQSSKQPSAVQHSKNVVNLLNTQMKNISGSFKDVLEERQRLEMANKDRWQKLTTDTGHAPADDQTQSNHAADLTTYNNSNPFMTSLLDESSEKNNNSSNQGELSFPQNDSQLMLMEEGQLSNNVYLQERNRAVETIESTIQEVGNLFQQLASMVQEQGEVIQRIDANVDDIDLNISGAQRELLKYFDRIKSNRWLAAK
T3 sequence 2: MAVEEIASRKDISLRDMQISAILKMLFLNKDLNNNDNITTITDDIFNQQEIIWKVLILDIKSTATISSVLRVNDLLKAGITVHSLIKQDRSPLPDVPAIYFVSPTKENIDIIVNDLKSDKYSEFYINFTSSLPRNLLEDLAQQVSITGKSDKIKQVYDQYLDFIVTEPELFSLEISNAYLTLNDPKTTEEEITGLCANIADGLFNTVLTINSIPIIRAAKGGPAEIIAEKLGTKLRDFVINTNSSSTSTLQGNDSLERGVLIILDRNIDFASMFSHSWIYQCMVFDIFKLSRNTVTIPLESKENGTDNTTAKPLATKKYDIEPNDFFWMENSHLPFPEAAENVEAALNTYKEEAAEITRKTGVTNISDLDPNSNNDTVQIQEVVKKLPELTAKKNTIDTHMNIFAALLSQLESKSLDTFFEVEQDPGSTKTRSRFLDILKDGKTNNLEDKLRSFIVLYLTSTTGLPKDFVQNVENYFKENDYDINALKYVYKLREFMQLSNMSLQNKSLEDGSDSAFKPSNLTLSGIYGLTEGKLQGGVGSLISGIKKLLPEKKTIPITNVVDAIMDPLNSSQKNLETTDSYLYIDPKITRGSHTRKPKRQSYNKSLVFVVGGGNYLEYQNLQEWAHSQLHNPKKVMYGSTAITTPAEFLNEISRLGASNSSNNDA

For assay [4], the target named is B1.

For the molecule B1, in assay [1], the binding result is “binds”.

B2: His6-Sec22p (amino acids 1–188) (domain or fragment)
chain: MIKSTLIYREDGLPLCTSVDNENDPSLFEQKQKVKIVVSRLTPQSATEATLESGSFEIHYLKKSMVYYFVICESGYPRNLAFSYLNDIAQEFEHSFANEYPKPTVRPYQFVNFDNFLQMTKKSYSDKKVQDNLDQLNQELVGVKQIMSKNIEDLLYRGDSLDKMSDMSSSLKETSKRYRKSAQKINFD
Take B2: the binding result in assay [2] is given as “binds”. The “stoichiometry N” value in assay [3] was found to be 1.4 per Sed5p; in assay [4] it was 1.3 per Sed5p.

Broadly, the stoichiometry N is the number of molecules, sites or subunits per partner or assembly.
